Experiment [1] deals with T1, canine FcRn (soluble large subunit p51 isoform X2 with 6xHis-tag, co-expressed with canine … (canine)).
T1 construct: Heterodimer made by co-expression in CHO cells, purified on HISTRAP FF, >95% pure by SEC; Both entries hold a 19-residue signal peptide at the N-terminus that should be removed (residues 1-19); also called FcRn complex
T1 chain: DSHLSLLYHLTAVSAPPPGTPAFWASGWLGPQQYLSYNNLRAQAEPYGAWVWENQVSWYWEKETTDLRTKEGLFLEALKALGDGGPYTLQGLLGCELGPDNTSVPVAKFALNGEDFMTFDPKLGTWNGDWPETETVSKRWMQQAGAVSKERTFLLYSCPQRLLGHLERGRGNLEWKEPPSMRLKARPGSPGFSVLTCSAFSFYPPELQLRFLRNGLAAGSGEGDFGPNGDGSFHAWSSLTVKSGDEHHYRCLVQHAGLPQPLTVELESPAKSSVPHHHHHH
T1 b2m: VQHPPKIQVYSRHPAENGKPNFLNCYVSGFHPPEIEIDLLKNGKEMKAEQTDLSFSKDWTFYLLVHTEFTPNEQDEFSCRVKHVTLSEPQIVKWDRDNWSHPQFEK
Put plainly: SPR, IgG on protein L chip, FcRn in flow, pH 5.9, 1:1 fit. As for the experimental part:
(§1) The canine FcRn binding experiments at pH 5.9 and pH 7.4 were completed on a BIACORE™ T200 instrument. A Series S Protein L Sensor chip (Cytiva, Cat. No. BR29205137) was used to capture the antibody variants via the kappa (κ) light chain. The canine variants were captured onto the protein L chip at a flow rate of 10 μL/min for 60 seconds. Approximately 250 RUs of the variants were captured. For the low pH binding condition, 1×PBX-P+ (Cytiva, Cat. No. 28995084) was adjusted to pH 5.9. The canine FcRn was flowed over the sensor chip at 30 μL/min for 120 seconds contact time and 600 seconds dissociation time. Regeneration of the flow cells was completed by flowing over 10 mM glycine, pH 1.7 at 30 μL/min for 30 seconds. The data were evaluated by the BIACORE™ T200 Evaluation software (version 3.2.1) by fitting to a 1:1 kinetic interaction model.

The target of experiment [2] is T1, canine FcRn (soluble large subunit p51 …). Put plainly: SPR, IgG on protein L chip, FcRn in flow, pH 5.9, kinetic data. On the procedure: as §1
For orientation: Surface plasmon resonance follows binding to a sensor surface in real time, without labels.

The target is the same in experiment [3]. As to the kind of experiment: SPR, IgG on protein L chip, FcRn in flow, pH 7.4, steady state fit. On the procedure: as §1
A subset of the Fc variants was tested for binding to canine FcRn at pH 7.4. For these experiments, 1×PBX-P+ (Cytiva, Cat. No. 28995084) was adjusted to pH 7.4. […] In addition, the pH 7.4 data were evaluated by the BIACORE™ T200 Evaluation software (version 3.2.1) by fitting to steady state affinity model. The kinetic binding data for the variants at pH 7.4 along with the binding data at pH 5.9 for these variants are shown in Table 7 below.

B1: IgG with canine IgGB Fc variant L252M, T286W (antibody)
heavy: EVQLVESGGDLVAPSQSLSITCTVSGMSLTSNSISWVRQPPGRGLEWLGTIWSNGGTDYTDAVKGRFTISRDNAKNTVYLQMNSLRAEDTAMYYCAQIYYYDADYLHWYFDFWGQGTLVTVSSASTTAPSVFPLAPSCGSTSGSTVALACLVSGYFPEPVTVSWNSGSLTSGVHTFPSVLQSSGLYSLSSMVTVPSSRWPSETFTCNVAHPASKTKVDKPVPKRENGRVPRPPDCPKCPAPEAAGGPSVFIFPPKPKDTLMIARTPEVTCVVVDLDPEDPEVQISWFVDGKQMQWAKTQPREEQFNGTYRVVSVLPIGHQDWLKGKQFTCKVNNKALPSPIERTISKARGQAHQPSVYVLPPSREELSKNTVSLTCLIKDFFPPDIDVEWQSNGQQEPESKYRTTPPQLDEDGSYFLYSKLSVDKSRWQRGDTFICAVMHEALHNHYTQESLSHSPG
light: EIVMTQSPASLSASQEEKVTITCRASEGISNNLAWYQQKPGQAPKLLIHATSSLQTGVPSRFSGSGSGTDFTLTISSLQPEDFATYYCQQGYQFPLTFGQGTKVEIKRNDAQPAVYLFQPSPDQLHTGSASVVCLLNSFYPKDINVKWKVDGVIQDTGIQESVTEQDKDSTYSLSSTLTMSSTEYLSHELYSCEITHKSLPSTLIKSFQRSECQRVD
notes: Full chains; canine IgGB constant domain with MALA mutations; variable domains of WO 2023/97275
In experiment [1], B1 showed a Kd of 64.5 nM, a koff of 0.0912 s⁻¹ and a kon of 1.42e+06 M⁻¹ s⁻¹.

B2: IgG with canine IgGB Fc variant L252M, T286Y (antibody)
heavy: EVQLVESGGDLVAPSQSLSITCTVSGMSLTSNSISWVRQPPGRGLEWLGTIWSNGGTDYTDAVKGRFTISRDNAKNTVYLQMNSLRAEDTAMYYCAQIYYYDADYLHWYFDFWGQGTLVTVSSASTTAPSVFPLAPSCGSTSGSTVALACLVSGYFPEPVTVSWNSGSLTSGVHTFPSVLQSSGLYSLSSMVTVPSSRWPSETFTCNVAHPASKTKVDKPVPKRENGRVPRPPDCPKCPAPEAAGGPSVFIFPPKPKDTLMIARTPEVTCVVVDLDPEDPEVQISWFVDGKQMQYAKTQPREEQFNGTYRVVSVLPIGHQDWLKGKQFTCKVNNKALPSPIERTISKARGQAHQPSVYVLPPSREELSKNTVSLTCLIKDFFPPDIDVEWQSNGQQEPESKYRTTPPQLDEDGSYFLYSKLSVDKSRWQRGDTFICAVMHEALHNHYTQESLSHSPG
light: EIVMTQSPASLSASQEEKVTITCRASEGISNNLAWYQQKPGQAPKLLIHATSSLQTGVPSRFSGSGSGTDFTLTISSLQPEDFATYYCQQGYQFPLTFGQGTKVEIKRNDAQPAVYLFQPSPDQLHTGSASVVCLLNSFYPKDINVKWKVDGVIQDTGIQESVTEQDKDSTYSLSSTLTMSSTEYLSHELYSCEITHKSLPSTLIKSFQRSECQRVD
notes: as for B1
In experiment [1], B2 came in with a Kd of 66.6 nM, a koff of 0.0822 s⁻¹ and a kon of 1.24e+06 M⁻¹ s⁻¹.

B3: IgG with canine IgGB Fc variant L252Y, T286W (antibody)
heavy: EVQLVESGGDLVAPSQSLSITCTVSGMSLTSNSISWVRQPPGRGLEWLGTIWSNGGTDYTDAVKGRFTISRDNAKNTVYLQMNSLRAEDTAMYYCAQIYYYDADYLHWYFDFWGQGTLVTVSSASTTAPSVFPLAPSCGSTSGSTVALACLVSGYFPEPVTVSWNSGSLTSGVHTFPSVLQSSGLYSLSSMVTVPSSRWPSETFTCNVAHPASKTKVDKPVPKRENGRVPRPPDCPKCPAPEAAGGPSVFIFPPKPKDTLYIARTPEVTCVVVDLDPEDPEVQISWFVDGKQMQWAKTQPREEQFNGTYRVVSVLPIGHQDWLKGKQFTCKVNNKALPSPIERTISKARGQAHQPSVYVLPPSREELSKNTVSLTCLIKDFFPPDIDVEWQSNGQQEPESKYRTTPPQLDEDGSYFLYSKLSVDKSRWQRGDTFICAVMHEALHNHYTQESLSHSPG
light: EIVMTQSPASLSASQEEKVTITCRASEGISNNLAWYQQKPGQAPKLLIHATSSLQTGVPSRFSGSGSGTDFTLTISSLQPEDFATYYCQQGYQFPLTFGQGTKVEIKRNDAQPAVYLFQPSPDQLHTGSASVVCLLNSFYPKDINVKWKVDGVIQDTGIQESVTEQDKDSTYSLSSTLTMSSTEYLSHELYSCEITHKSLPSTLIKSFQRSECQRVD
notes: as for B1
In experiment [1], B3 showed a Kd of 9.82 nM, a koff of 0.0203 s⁻¹ and an association rate constant (kon) of 2.07e+06 M⁻¹ s⁻¹.

B4: IgG with canine IgGB Fc variant L252Y, T286Y (antibody)
heavy: EVQLVESGGDLVAPSQSLSITCTVSGMSLTSNSISWVRQPPGRGLEWLGTIWSNGGTDYTDAVKGRFTISRDNAKNTVYLQMNSLRAEDTAMYYCAQIYYYDADYLHWYFDFWGQGTLVTVSSASTTAPSVFPLAPSCGSTSGSTVALACLVSGYFPEPVTVSWNSGSLTSGVHTFPSVLQSSGLYSLSSMVTVPSSRWPSETFTCNVAHPASKTKVDKPVPKRENGRVPRPPDCPKCPAPEAAGGPSVFIFPPKPKDTLYIARTPEVTCVVVDLDPEDPEVQISWFVDGKQMQYAKTQPREEQFNGTYRVVSVLPIGHQDWLKGKQFTCKVNNKALPSPIERTISKARGQAHQPSVYVLPPSREELSKNTVSLTCLIKDFFPPDIDVEWQSNGQQEPESKYRTTPPQLDEDGSYFLYSKLSVDKSRWQRGDTFICAVMHEALHNHYTQESLSHSPG
light: EIVMTQSPASLSASQEEKVTITCRASEGISNNLAWYQQKPGQAPKLLIHATSSLQTGVPSRFSGSGSGTDFTLTISSLQPEDFATYYCQQGYQFPLTFGQGTKVEIKRNDAQPAVYLFQPSPDQLHTGSASVVCLLNSFYPKDINVKWKVDGVIQDTGIQESVTEQDKDSTYSLSSTLTMSSTEYLSHELYSCEITHKSLPSTLIKSFQRSECQRVD
notes: as for B1
In experiment [1], B4 showed an equilibrium dissociation constant (Kd) of 10.2 nM, an off-rate constant (koff) of 0.018 s⁻¹ and an association rate constant (kon) of 1.76e+06 M⁻¹ s⁻¹.

B5: IgG with canine IgGB Fc variant L252Y (antibody)
heavy: EVQLVESGGDLVAPSQSLSITCTVSGMSLTSNSISWVRQPPGRGLEWLGTIWSNGGTDYTDAVKGRFTISRDNAKNTVYLQMNSLRAEDTAMYYCAQIYYYDADYLHWYFDFWGQGTLVTVSSASTTAPSVFPLAPSCGSTSGSTVALACLVSGYFPEPVTVSWNSGSLTSGVHTFPSVLQSSGLYSLSSMVTVPSSRWPSETFTCNVAHPASKTKVDKPVPKRENGRVPRPPDCPKCPAPEAAGGPSVFIFPPKPKDTLYIARTPEVTCVVVDLDPEDPEVQISWFVDGKQMQTAKTQPREEQFNGTYRVVSVLPIGHQDWLKGKQFTCKVNNKALPSPIERTISKARGQAHQPSVYVLPPSREELSKNTVSLTCLIKDFFPPDIDVEWQSNGQQEPESKYRTTPPQLDEDGSYFLYSKLSVDKSRWQRGDTFICAVMHEALHNHYTQESLSHSPG
light: EIVMTQSPASLSASQEEKVTITCRASEGISNNLAWYQQKPGQAPKLLIHATSSLQTGVPSRFSGSGSGTDFTLTISSLQPEDFATYYCQQGYQFPLTFGQGTKVEIKRNDAQPAVYLFQPSPDQLHTGSASVVCLLNSFYPKDINVKWKVDGVIQDTGIQESVTEQDKDSTYSLSSTLTMSSTEYLSHELYSCEITHKSLPSTLIKSFQRSECQRVD
notes: as for B1
Turning to B5, in experiment [1], the affinity, expressed as Kd, was 43.5 nM; the off-rate constant (koff) stood at 0.0491 s⁻¹; the kon stood at 1.13e+06 M⁻¹ s⁻¹. In addition, in experiment [2], the dissociation constant Kd was 43.5 nM, the dissociation rate constant (koff) amounted to 0.0491 s⁻¹ and the on-rate (kon) came out at 1.13e+06 M⁻¹ s⁻¹. In addition, the dissociation constant Kd in experiment [3] stood at 4440 nM.

B6: IgG with canine IgGB Fc variant L252Y, T286F (antibody)
heavy: EVQLVESGGDLVAPSQSLSITCTVSGMSLTSNSISWVRQPPGRGLEWLGTIWSNGGTDYTDAVKGRFTISRDNAKNTVYLQMNSLRAEDTAMYYCAQIYYYDADYLHWYFDFWGQGTLVTVSSASTTAPSVFPLAPSCGSTSGSTVALACLVSGYFPEPVTVSWNSGSLTSGVHTFPSVLQSSGLYSLSSMVTVPSSRWPSETFTCNVAHPASKTKVDKPVPKRENGRVPRPPDCPKCPAPEAAGGPSVFIFPPKPKDTLYIARTPEVTCVVVDLDPEDPEVQISWFVDGKQMQFAKTQPREEQFNGTYRVVSVLPIGHQDWLKGKQFTCKVNNKALPSPIERTISKARGQAHQPSVYVLPPSREELSKNTVSLTCLIKDFFPPDIDVEWQSNGQQEPESKYRTTPPQLDEDGSYFLYSKLSVDKSRWQRGDTFICAVMHEALHNHYTQESLSHSPG
light: EIVMTQSPASLSASQEEKVTITCRASEGISNNLAWYQQKPGQAPKLLIHATSSLQTGVPSRFSGSGSGTDFTLTISSLQPEDFATYYCQQGYQFPLTFGQGTKVEIKRNDAQPAVYLFQPSPDQLHTGSASVVCLLNSFYPKDINVKWKVDGVIQDTGIQESVTEQDKDSTYSLSSTLTMSSTEYLSHELYSCEITHKSLPSTLIKSFQRSECQRVD
notes: as for B1
In the case of B6, in experiment [1], the dissociation constant (Kd) came out at 10.8 nM, the koff was found to be 0.0193 s⁻¹ and the kon worked out at 1.79e+06 M⁻¹ s⁻¹.

What is called Kd is the equilibrium constant for the complex coming apart. The koff is the rate constant with which the complex falls apart. Lower therefore signals slow dissociation. The term kon denotes the second-order rate constant of association. Read a high kon as faster complex formation.

(Values after US20240209096A1 (INVETX, published 2024).)
